Measured values taken from patent US20150291952, “RNA APTAMER ISOLATION VIA DUAL-CYCLE (RAPID) SELECTION” (CORNELL UNIVERSITY, published 2015).

Experiments:
CHK2 [1] = molecular target: T1, CHK2 (UniProt O96017 O96017:1-543); test: FP; same samples as F-EMSA, Hill fit; 5 mM MgCl2, yeast tRNA, room temp; conditions: tags: hexahistidine; expressed in E. coli BL21(DE3)-RIPL, Ni-NTA, ~90-95% pure; label: 3'-fluorescein (fluorescein 5-thiosemicarbazide)
Procedure: (§1) The RNA samples were 3′-end labelled with fluorescein 5-thiosemicarbazide (Invitrogen) as described previously (Pagano et al. 2007). 50 μL binding reactions were prepared with 2 nM fluorescently-labelled RNA and decreasing amounts of protein (2000 to 0 nM) in binding buffer containing 0.01% IGEPAL CA630, 10 μg/ml yeast tRNA, and 3 U of SUPERase•In RNase Inhibitor. Reactions were prepared in black 96-well half area microplates (Corning) and incubated at room temperature for 2 hours. The plates were scanned on a Synergy H1 microplate reader (BioTek) using the Ex: 485/20 Em: 528/20 filter set to determine the Fluorescence Polarization (FP). The polarization “P” is determined from the total parallel and perpendicular polarized fluorescence according to:
(§2) In order to confirm that the two methods had independently enriched the same aptamer, we tested the unambiguous top-ranked SELEX/RAPID candidate for CHK2 binding, hereafter referred to as C6M1. […] The calculated fraction bound curve for the gel shift is also shown in FIG. 6B as the solid line (left axis). […] In order to ensure that the observed binding was not a gel artefact, we also performed a Fluorescence Polarization (FP) assay. […]

CHK2 [2] = molecular target: T1, CHK2; test: EMSA; F-EMSA, Hill fit; 25 mM Tris pH 8.0, 10 mM NaCl, 25 mM KCl, 5 mM MgCl2, 10 ug/ml yeast tRNA, room temp; binding to contaminant not ruled out; conditions: tags: hexahistidine; expressed in E. coli BL21(DE3)-RIPL, Ni-NTA, ~90-95% pure; label: 3'-fluorescein (fluorescein 5-thiosemicarbazide)
Procedure: as §1, §2

T1 sequence (O96017 whole entry, one chain of several): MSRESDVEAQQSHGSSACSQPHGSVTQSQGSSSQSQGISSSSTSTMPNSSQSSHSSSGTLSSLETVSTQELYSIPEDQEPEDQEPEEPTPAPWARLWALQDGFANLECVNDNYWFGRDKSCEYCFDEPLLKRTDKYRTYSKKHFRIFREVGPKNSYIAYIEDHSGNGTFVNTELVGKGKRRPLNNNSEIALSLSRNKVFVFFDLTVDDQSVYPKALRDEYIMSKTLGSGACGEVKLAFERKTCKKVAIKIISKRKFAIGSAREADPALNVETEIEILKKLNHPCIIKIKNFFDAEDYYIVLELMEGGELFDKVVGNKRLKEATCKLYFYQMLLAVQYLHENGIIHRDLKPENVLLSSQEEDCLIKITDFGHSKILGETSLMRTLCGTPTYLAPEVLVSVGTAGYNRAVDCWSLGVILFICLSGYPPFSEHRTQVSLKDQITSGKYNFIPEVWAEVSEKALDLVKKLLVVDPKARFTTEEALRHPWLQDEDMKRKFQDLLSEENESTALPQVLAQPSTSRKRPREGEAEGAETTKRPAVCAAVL

B1: C6M1 (ssRNA)
RNA: GGGAAUGGAUCCACAUCUACGAAUUCGAUCGGUUCCAACGCUCUGUCGCCUAAGUGAACAGAUGAAGAAAAAAUAGCCCAAUAAGAGGCAACAAUCUUUCACUGCAGACUUGACGAAGCUU
modifications: RNA transcript; SEQ:21 is the random region, assayed RNA also carries both library constant regions (reverse complement of the SEQ:22 flanks) [positions count without the 26-nt 5-prime fixed region]
Q: What does the source list for B1?
A: Kd (CHK2 [1]): 299 nM; Kd (CHK2 [2]): 180 nM
